Results reported in IntAct's records for PubMed 31515488.

B1: Keratin-associated protein 26-1 (Homo sapiens), Q6PEX3 (parent)
chain: MSCPNYCSGNSNSGSLRTSRHIPLTSIDLCPTSVSCGDVLYLPTSSQDHTWVTDNCQETCGEPTSCQPVHCETGNLETSCGSSTAYYVPRPCQGSSFLPASFFSSSCLPVSCRPQRYVSSGCRPLRPLLNSYQPIGDCVPNAYRPQFCLSKSCQPQNLLTSGCQPSSCLAYRPQSLHVVSSSLRPLGPLFSGCQPLTHVFSTCRPSCSGL
partner: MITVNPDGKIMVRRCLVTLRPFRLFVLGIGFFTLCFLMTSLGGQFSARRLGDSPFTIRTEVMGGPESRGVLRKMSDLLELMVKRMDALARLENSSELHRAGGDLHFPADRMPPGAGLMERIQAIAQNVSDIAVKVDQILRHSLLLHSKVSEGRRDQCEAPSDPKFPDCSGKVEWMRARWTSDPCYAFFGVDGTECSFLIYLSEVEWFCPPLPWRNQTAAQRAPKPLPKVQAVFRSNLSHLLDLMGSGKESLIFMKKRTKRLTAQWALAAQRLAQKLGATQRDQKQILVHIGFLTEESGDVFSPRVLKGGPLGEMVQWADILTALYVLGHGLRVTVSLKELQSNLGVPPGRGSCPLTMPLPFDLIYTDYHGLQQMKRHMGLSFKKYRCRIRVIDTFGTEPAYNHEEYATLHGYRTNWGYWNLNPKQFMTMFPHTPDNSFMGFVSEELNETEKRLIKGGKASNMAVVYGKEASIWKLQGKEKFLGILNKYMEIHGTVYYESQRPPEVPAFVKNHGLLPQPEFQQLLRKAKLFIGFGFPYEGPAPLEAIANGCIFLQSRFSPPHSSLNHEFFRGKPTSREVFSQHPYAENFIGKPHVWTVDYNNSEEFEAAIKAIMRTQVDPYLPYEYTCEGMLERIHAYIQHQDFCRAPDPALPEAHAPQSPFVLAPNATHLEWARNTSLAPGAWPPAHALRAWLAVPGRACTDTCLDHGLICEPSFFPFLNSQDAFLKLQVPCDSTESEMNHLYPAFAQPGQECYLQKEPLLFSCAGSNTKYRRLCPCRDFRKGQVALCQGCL
B2: UPF0193 protein EVG1 (Homo sapiens), Q9BZE7 (parent)
chain: MASQKQMEVVTKGTGFRRRPKTITYTPGTCELLRVMMKESKLTNIQQRHIMDIMKRGDALPLQCSPTSSQRVLPSKQIASPIYLPPILAARPHLRPANMCQANGAYSREQFKPQATRDLEKEKQRLQNIFATGKDMEERKRKAPPARQKAPAPELDRFEELVKEIQERKEFLADMEALGQGKQYRGIILAEISQKLREMEDIDHRRSEELRKGLATT
B3: Peroxisomal bifunctional enzyme (Homo sapiens), Q08426 (parent)
chain: MAEYTRLHNALALIRLRNPPVNAISTTLLRDIKEGLQKAVIDHTIKAIVICGAEGKFSAGADIRGFSAPRTFGLTLGHVVDEIQRNEKPVVAAIQGMAFGGGLELALGCHYRIAHAEAQVGLPEVTLGLLPGARGTQLLPRLTGVPAALDLITSGRRILADEALKLGILDKVVNSDPVEEAIRFAQRVSDQPLESRRLCNKPIQSLPNMDSIFSEALLKMRRQHPGCLAQEACVRAVQAAVQYPYEVGIKKEEELFLYLLQSGQARALQYAFFAERKANKWSTPSGASWKTASARPVSSVGVVGLGTMGRGIVISFARARIPVIAVDSDKNQLATANKMITSVLEKEASKMQQSGHPWSGPKPRLTSSVKELGGVDLVIEAVFEEMSLKKQVFAELSAVCKPEAFLCTNTSALDVDEIASSTDRPHLVIGTHFFSPAHVMKLLEVIPSQYSSPTTIATVMNLSKKIKKIGVVVGNCFGFVGNRMLNPYYNQAYFLLEEGSKPEEVDQVLEEFGFKMGPFRVSDLAGLDVGWKSRKGQGLTGPTLLPGTPARKRGNRRYCPIPDVLCELGRFGQKTGKGWYQYDKPLGRIHKPDPWLSKFLSRYRKTHHIEPRTISQDEILERCLYSLINEAFRILGEGIAASPEHIDVVYLHGYGWPRHKGGPMFYASTVGLPTVLEKLQKYYRQNPDIPQLEPSDYLKKLASQGNPPLKEWQSLAGSPSSKL
partner: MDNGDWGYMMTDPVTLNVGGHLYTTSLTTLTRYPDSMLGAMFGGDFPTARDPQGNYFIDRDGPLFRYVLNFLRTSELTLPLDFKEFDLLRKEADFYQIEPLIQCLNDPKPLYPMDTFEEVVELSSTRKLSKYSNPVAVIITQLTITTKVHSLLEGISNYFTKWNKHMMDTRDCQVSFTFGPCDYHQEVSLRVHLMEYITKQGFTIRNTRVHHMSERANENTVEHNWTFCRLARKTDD
B4: Endoplasmic reticulum resident protein 27 (Homo sapiens), Q96DN0 (parent)
chain: MEAAPSRFMFLLFLLTCELAAEVAAEVEKSSDGPGAAQEPTWLTDVPAAMEFIAATEVAVIGFFQDLEIPAVPILHSMVQKFPGVSFGISTDSEVLTHYNITGNTICLFRLVDNEQLNLEDEDIESIDATKLSRFIEINSLHMVTEYNPVTVIGLFNSVIQIHLLLIMNKASPEYEENMHRYQKAAKLFQGKILFILVDSGMKENGKVISFFKLKESQLPALAIYQTLDDEWDTLPTAEVSVEHVQNFCDGFLSGKLLKENRESEGKTPKVEL
B5: F-box only protein 11 (Homo sapiens), Q86XK2 (parent)
chain: MNSVRAANRRPRRVSRPRPVQQQQQQPPQQPPPQPPQQQPPQQQPPPPPQQQQQQQPPPPPPPPPPLPQERNNVGERDDDVPADMVAEESGPGAQNSPYQLRRKTLLPKRTACPTKNSMEGASTSTTENFGHRAKRARVSGKSQDLSAAPAEQYLQEKLPDEVVLKIFSYLLEQDLCRAACVCKRFSELANDPILWKRLYMEVFEYTRPMMHPEPGKFYQINPEEYEHPNPWKESFQQLYKGAHVKPGFAEHFYSNPARYKGRENMLYYDTIEDALGGVQEAHFDGLIFVHSGIYTDEWIYIESPITMIGAAPGKVADKVIIENTRDSTFVFMEGSEDAYVGYMTIRFNPDDKSAQHHNAHHCLEITVNCSPIIDHCIIRSTCTVGSAVCVSGQGACPTIKHCNISDCENVGLYITDHAQGIYEDNEISNNALAGIWVKNHGNPIIRRNHIHHGRDVGVFTFDHGMGYFESCNIHRNRIAGFEVKAYANPTVVRCEIHHGQTGGIYVHEKGRGQFIENKIYANNFAGVWITSNSDPTIRGNSIFNGNQGGVYIFGDGRGLIEGNDIYGNALAGIQIRTNSCPIVRHNKIHDGQHGGIYVHEKGQGVIEENEVYSNTLAGVWVTTGSTPVLRRNRIHSGKQVGVYFYDNGHGVLEDNDIYNHMYSGVQIRTGSNPKIRRNKIWGGQNGGILVYNSGLGCIEDNEIFDNAMAGVWIKTDSNPTLRRNKIHDGRDGGICIFNGGRGLLEENDIFRNAQAGVLISTNSHPILRKNRIFDGFAAGIEITNHATATLEGNQIFNNRFGGLFLASGVNVTMKDNKIMNNQDAIEKAVSRGQCLYKISSYTSYPMHDFYRCHTCNTTDRNAICVNCIKKCHQGHDVEFIRHDRFFCDCGAGTLSNPCTLAGEPTHDTDTLYDSAPPIESNTLQHN

Variants of: B1
Settings: with mgt5b_human MGAT5B

| effect of a mutation on the interaction | Variant |
| --- | --- |
| with no effect | S26Y |

Variants of: B2
Settings: with ccdb1_human CCNDBP1, O95273
Chain of ccdb1_human CCNDBP1, O95273 (O95273 whole entry): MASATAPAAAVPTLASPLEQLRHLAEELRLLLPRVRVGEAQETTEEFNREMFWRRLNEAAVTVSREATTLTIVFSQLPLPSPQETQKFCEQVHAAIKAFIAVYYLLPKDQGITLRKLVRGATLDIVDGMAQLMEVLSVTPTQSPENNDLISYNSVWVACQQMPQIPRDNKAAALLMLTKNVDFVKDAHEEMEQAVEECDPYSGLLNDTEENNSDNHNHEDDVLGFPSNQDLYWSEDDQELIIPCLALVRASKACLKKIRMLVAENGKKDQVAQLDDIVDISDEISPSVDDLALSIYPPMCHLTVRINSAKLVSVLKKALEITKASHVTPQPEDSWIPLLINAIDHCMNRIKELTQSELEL

| effect of a mutation on the interaction | Variant |
| --- | --- |
| with no effect | M136L |

Variants of: B3
Settings: with kctd6_human KCTD6, Q8NC69

| effect of a mutation on the interaction | Variant |
| --- | --- |
| disrupting interaction strength | L715S |
| with no effect | S703F |
| disrupting interaction strength | R483Q |
| disrupting interaction strength | I646T |

Variants of: B4
Settings: with ef1d_human EEF1D

| effect of a mutation on the interaction | Variant |
| --- | --- |
| with no effect | E122K |

Variants of: B4
Settings: with ubql1_human UBQLN1, Q9UMX0
Chain of ubql1_human UBQLN1, Q9UMX0 (Q9UMX0 whole entry): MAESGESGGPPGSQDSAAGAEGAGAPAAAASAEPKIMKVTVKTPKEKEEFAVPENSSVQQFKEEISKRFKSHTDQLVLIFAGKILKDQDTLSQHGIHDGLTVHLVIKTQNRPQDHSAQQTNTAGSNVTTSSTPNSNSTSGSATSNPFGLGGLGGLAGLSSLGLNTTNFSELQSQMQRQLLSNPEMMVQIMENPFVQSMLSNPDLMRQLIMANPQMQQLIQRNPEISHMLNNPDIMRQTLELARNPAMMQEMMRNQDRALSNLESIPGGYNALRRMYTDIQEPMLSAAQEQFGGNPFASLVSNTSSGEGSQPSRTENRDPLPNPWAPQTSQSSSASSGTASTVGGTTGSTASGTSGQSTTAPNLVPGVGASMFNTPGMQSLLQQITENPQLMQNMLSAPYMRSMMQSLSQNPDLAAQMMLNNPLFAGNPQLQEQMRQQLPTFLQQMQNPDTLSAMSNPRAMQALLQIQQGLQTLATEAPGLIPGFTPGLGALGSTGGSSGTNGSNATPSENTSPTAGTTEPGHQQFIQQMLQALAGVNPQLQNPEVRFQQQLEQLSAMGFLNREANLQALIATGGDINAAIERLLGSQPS

| effect of a mutation on the interaction | Variant |
| --- | --- |
| with no effect | E122K |

Variants of: B4
Settings: with sgta_human SGTA

| effect of a mutation on the interaction | Variant |
| --- | --- |
| with no effect | E122K |

Variants of: B5
Settings: with skp1_human SKP1, P63208
Chain of skp1_human SKP1, P63208 (P63208 whole entry): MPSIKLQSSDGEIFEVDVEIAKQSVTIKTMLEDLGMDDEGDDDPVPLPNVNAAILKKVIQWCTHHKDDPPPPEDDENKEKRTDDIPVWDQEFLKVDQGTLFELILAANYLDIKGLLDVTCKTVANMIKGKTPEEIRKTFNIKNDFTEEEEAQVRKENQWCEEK

| effect of a mutation on the interaction | Variant |
| --- | --- |
| with no effect | I306V |
| with no effect | Y226C |
